Patent US20250281611A1 (BIOSCEPTRE AUST, published 2025)

B1: CD33 BRIDGE variant B26 (Fab, V domains shown)
VH: QVQLVQSGAEVKKPGSSVKVSCKASGYTFTDYNMHWVRQAPGQGLEWIGYIYPYNGGTGYNQKFKSKATITADESTNTAYMELSSLRSEDTAVYYCARGRPAMDYWGQGTLVTVSS
VL: DIQMTQSPSSLSASVGDRVTITCRASESVDNYGISFMNWFQQKPGKAPKLLIYAASNQGSGVPSRFSGSGSGTDFTLTISSLQPDDFATYYCQQSKEVPWTFGQGTKVEIKR
notes: Lintuzumab-based Fab bridging molecule
B2: CD33 BRIDGE variant B24 (Fab)
light: DFPGHNYTTRNILPGLNITSTFHKTSGSGKGGGGSEPKSSDKTHTDIQMTQSPSSLSASVGDRVTITCRASESVDNYGISFMNWFQQKPGKAPKLLIYAASNQGSGVPSRFSGSGSGTDFTLTISSLQPDDFATYYCQQSKEVPWTFGQGTKVEIKRTVAAPSVFIFPPSDEQLKSGTASVVCLLNNFYPREAKVQWKVDNALQSGNSQESVTEQDSKDSTYSLSSTLTLSKADYEKHKVYACEVTHQGLSSPVTKSFNRGECHHHHHH
heavy: QVQLVQSGAEVKKPGSSVKVSCKASGYTFTDYNMHWVRQAPGQGLEWIGYIYPYNGGTGYNQKFKSKATITADESTNTAYMELSSLRSEDTAVYYCARGRPAMDYWGQGTLVTVSSASTKGPSVFPLAPSSKSTSGGTAALGCLVKDYFPEPVTVSWNSGALTSGVHTFPAVLQSSGLYSLSSVVTVPSSSLGTQTYICNVNHKPSNTKVDKKVEPKSCHHHHHH
notes: as for B1
B3: CD33 BRIDGE variant B29 (Fab)
light: DFPGHNYTTRNILPGLNITSTFHKTSGSGKGSEPKSSDKTHTGSDIQMTQSPSSLSASVGDRVTITCRASESVDNYGISFMNWFQQKPGKAPKLLIYAASNQGSGVPSRFSGSGSGTDFTLTISSLQPDDFATYYCQQSKEVPWTFGQGTKVEIKRTVAAPSVFIFPPSDEQLKSGTASVVCLLNNFYPREAKVQWKVDNALQSGNSQESVTEQDSKDSTYSLSSTLTLSKADYEKHKVYACEVTHQGLSSPVTKSFNRGECHHHHHH
heavy: B2 heavy
notes: as for B1
B4: CD33 BRIDGE variant B34 (Fab)
light: DFPGHNYTTRNILPGLNITSTFHKTSGSGKEPKSSDKTHTGGGGSDIQMTQSPSSLSASVGDRVTITCRASESVDNYGISFMNWFQQKPGKAPKLLIYAASNQGSGVPSRFSGSGSGTDFTLTISSLQPDDFATYYCQQSKEVPWTFGQGTKVEIKRTVAAPSVFIFPPSDEQLKSGTASVVCLLNNFYPREAKVQWKVDNALQSGNSQESVTEQDSKDSTYSLSSTLTLSKADYEKHKVYACEVTHQGLSSPVTKSFNRGECHHHHHH
heavy: B2 heavy
notes: as for B1
B5: CD33 BRIDGE variant B36 (Fab)
light: DFPGHNYTTRNILPGLNITSTFHKTSGSGKGGGGSEPKSSDKTHTGGGGSDIQMTQSPSSLSASVGDRVTITCRASESVDNYGISFMNWFQQKPGKAPKLLIYAASNQGSGVPSRFSGSGSGTDFTLTISSLQPDDFATYYCQQSKEVPWTFGQGTKVEIKRTVAAPSVFIFPPSDEQLKSGTASVVCLLNNFYPREAKVQWKVDNALQSGNSQESVTEQDSKDSTYSLSSTLTLSKADYEKHKVYACEVTHQGLSSPVTKSFNRGECHHHHHH
heavy: B2 heavy
notes: as for B1
B6: CD33 BRIDGE variant B32 (Fab)
light: DFPGHNYTTRNILPGLNITSGSEPKSSDKTHTGGGGSDIQMTQSPSSLSASVGDRVTITCRASESVDNYGISFMNWFQQKPGKAPKLLIYAASNQGSGVPSRFSGSGSGTDFTLTISSLQPDDFATYYCQQSKEVPWTFGQGTKVEIKRTVAAPSVFIFPPSDEQLKSGTASVVCLLNNFYPREAKVQWKVDNALQSGNSQESVTEQDSKDSTYSLSSTLTLSKADYEKHKVYACEVTHQGLSSPVTKSFNRGECHHHHHH
heavy: B2 heavy
notes: as for B1
B7: CD33 BRIDGE variant B30 (Fab)
light: DFPGHNYTTRNILPGLNITSTFHKTSGSGKGGGGSEPKSSDKTHTGSDIQMTQSPSSLSASVGDRVTITCRASESVDNYGISFMNWFQQKPGKAPKLLIYAASNQGSGVPSRFSGSGSGTDFTLTISSLQPDDFATYYCQQSKEVPWTFGQGTKVEIKRTVAAPSVFIFPPSDEQLKSGTASVVCLLNNFYPREAKVQWKVDNALQSGNSQESVTEQDSKDSTYSLSSTLTLSKADYEKHKVYACEVTHQGLSSPVTKSFNRGECHHHHHH
heavy: B2 heavy
notes: as for B1
B8: CD33 BRIDGE variant B31 (Fab)
light: DFPGHNYTTRNILPGLNITSEPKSSDKTHTGGGGSDIQMTQSPSSLSASVGDRVTITCRASESVDNYGISFMNWFQQKPGKAPKLLIYAASNQGSGVPSRFSGSGSGTDFTLTISSLQPDDFATYYCQQSKEVPWTFGQGTKVEIKRTVAAPSVFIFPPSDEQLKSGTASVVCLLNNFYPREAKVQWKVDNALQSGNSQESVTEQDSKDSTYSLSSTLTLSKADYEKHKVYACEVTHQGLSSPVTKSFNRGECHHHHHH
heavy: B2 heavy
notes: as for B1
B9: CD33 BRIDGE variant B33 (Fab)
light: DFPGHNYTTRNILPGLNITSGGGGSEPKSSDKTHTGGGGSDIQMTQSPSSLSASVGDRVTITCRASESVDNYGISFMNWFQQKPGKAPKLLIYAASNQGSGVPSRFSGSGSGTDFTLTISSLQPDDFATYYCQQSKEVPWTFGQGTKVEIKRTVAAPSVFIFPPSDEQLKSGTASVVCLLNNFYPREAKVQWKVDNALQSGNSQESVTEQDSKDSTYSLSSTLTLSKADYEKHKVYACEVTHQGLSSPVTKSFNRGECHHHHHH
heavy: B2 heavy
notes: as for B1
B10: CD33 BRIDGE variant B27 (Fab)
light: DFPGHNYTTRNILPGLNITSGGGGSEPKSSDKTHTGSDIQMTQSPSSLSASVGDRVTITCRASESVDNYGISFMNWFQQKPGKAPKLLIYAASNQGSGVPSRFSGSGSGTDFTLTISSLQPDDFATYYCQQSKEVPWTFGQGTKVEIKRTVAAPSVFIFPPSDEQLKSGTASVVCLLNNFYPREAKVQWKVDNALQSGNSQESVTEQDSKDSTYSLSSTLTLSKADYEKHKVYACEVTHQGLSSPVTKSFNRGECHHHHHH
heavy: B2 heavy
notes: as for B1
B11: CD33 BRIDGE variant B35 (Fab)
light: DFPGHNYTTRNILPGLNITSTFHKTSGSGKGSEPKSSDKTHTGGGGSDIQMTQSPSSLSASVGDRVTITCRASESVDNYGISFMNWFQQKPGKAPKLLIYAASNQGSGVPSRFSGSGSGTDFTLTISSLQPDDFATYYCQQSKEVPWTFGQGTKVEIKRTVAAPSVFIFPPSDEQLKSGTASVVCLLNNFYPREAKVQWKVDNALQSGNSQESVTEQDSKDSTYSLSSTLTLSKADYEKHKVYACEVTHQGLSSPVTKSFNRGECHHHHHH
heavy: B2 heavy
notes: as for B1

biological target: T1, nfP2X7 CAR 1; assay: flow cytometry, nfP2X7 CAR T cells (EGFR+), anti-His-FITC detection
T1 construct: Expressed on T cells with truncated EGFR as marker gene; also called anti-nfP2X7 receptor CAR 1; nfP2X7 targeted CAR on EGFR+ T cells

Row | Binder | MFI HisTag FITC in EGFR+ Population
1 | B1 | 1.22
2 | B2 | 1.82
3 | B3 | 1.73
4 | B4 | 1.31
5 | B5 | 1.65
6 | B6 | 1.59
7 | B7 | 1.63
8 | B8 | 1.34
9 | B9 | 1.69
10 | B10 | 1.2
11 | B11 | 2.15

biological target: T1, nfP2X7 CAR 1; assay: flow cytometry, CAR T cells, anti-His-FITC, EGFR+ MFI over background 0.4
Summary of the method: (§1)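 CAR T cells incubated with BRiDGE variants at saturating concentrations; bound BRiDGE detected with anti-His-FITC by flow cytometry. EGFR marks CAR expression. Value is median fluorescence intensity on EGFR+ (CAR+) cells divided by that on EGFR− (CAR−) cells.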

Row | Binder | HisTag MFI Ratio (background 0.4)
12 | B1 | 3.1
13 | B2 | 4.6
14 | B3 | 4.3
15 | B4 | 3.3
16 | B5 | 4.1
17 | B6 | 4
18 | B7 | 4.1
19 | B8 | 3.4
20 | B9 | 4.2
21 | B10 | 3
22 | B11 | 5.4

biological target: T2, CD33 (UniProt P20138 18-364, limits assumed); assay: flow cytometry, MOLM-13 cells, anti-His-FITC detection
T2 construct: whole, on cells; also called Siglec-3; CD33 on MOLM-13 cells
Method: (§2) MOLM-13 cells were incubated with different CD33 BRIDGE variants at saturating concentrations. […] The MFI intensity correlates with the number of secondary antibodies bound to the CD33 BRIDGE variants that are only detected if they are bound to the MOLM-13 cells. MFI: median fluorescence intensity. BLItz: Bio-Layer interferometry (BLI) technology using HIS-tag identification tips. […] The higher the MFIR, the stronger the binding.

T2 sequence (P20138 18-364 limits assumed): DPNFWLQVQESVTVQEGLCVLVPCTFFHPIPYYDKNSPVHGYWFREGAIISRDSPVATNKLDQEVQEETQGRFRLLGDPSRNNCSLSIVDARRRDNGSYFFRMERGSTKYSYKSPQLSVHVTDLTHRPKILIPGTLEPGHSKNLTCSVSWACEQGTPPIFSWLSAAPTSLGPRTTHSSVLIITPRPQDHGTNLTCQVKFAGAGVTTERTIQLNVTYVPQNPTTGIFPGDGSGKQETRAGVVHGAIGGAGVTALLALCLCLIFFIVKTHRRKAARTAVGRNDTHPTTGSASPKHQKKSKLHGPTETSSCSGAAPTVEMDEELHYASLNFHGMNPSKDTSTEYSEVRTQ

Row | Binder | MFI HisTag FITC
23 | B1 | 5.75
24 | B2 | 6.25
25 | B3 | 5.38
26 | B4 | 6.98
27 | B5 | 6.72
28 | B6 | 6.69
29 | B7 | 6.29
30 | B8 | 7.09
31 | B9 | 6.96
32 | B10 | 5.55
33 | B11 | 6.62

biological target: T2, CD33; assay: flow cytometry, MOLM-13 cells, anti-His-FITC detection, ratio to no bridge
Method: as §2

Row | Binder | MFIR HisTag FITC
34 | B1 | 8.58
35 | B2 | 9.33
36 | B3 | 8.03
37 | B4 | 10.4
38 | B5 | 10
39 | B6 | 9.99
40 | B7 | 9.39
41 | B8 | 10.6
42 | B9 | 10.4
43 | B10 | 8.28
44 | B11 | 9.88

biological target: T1, nfP2X7 CAR 1; assay: flow cytometry, CAR T cells, anti-His-FITC, EGFR+ over EGFR- cells
Summary of the method: as §1

Row | Binder | HisTag MFI Ratio of EGFR+/EGFR-
45 | B1 | 2.8
46 | B2 | 3.5
47 | B3 | 3.4
48 | B4 | 3
49 | B5 | 3.3
50 | B6 | 3.3
51 | B7 | 3.3
52 | B8 | 3
53 | B9 | 3.4
54 | B10 | 2.8
55 | B11 | 3.8
